# US5919901, “Neuropeptide Y receptor Y5 and nucleic acid sequences” (Bayer Corporation, dated 1999)
# Numbering of substitutions follows the chain as printed. Ends that are not written are not given here.
# T1: rat NPY Y5 receptor, clone Y861 (rat)
# T1 chain: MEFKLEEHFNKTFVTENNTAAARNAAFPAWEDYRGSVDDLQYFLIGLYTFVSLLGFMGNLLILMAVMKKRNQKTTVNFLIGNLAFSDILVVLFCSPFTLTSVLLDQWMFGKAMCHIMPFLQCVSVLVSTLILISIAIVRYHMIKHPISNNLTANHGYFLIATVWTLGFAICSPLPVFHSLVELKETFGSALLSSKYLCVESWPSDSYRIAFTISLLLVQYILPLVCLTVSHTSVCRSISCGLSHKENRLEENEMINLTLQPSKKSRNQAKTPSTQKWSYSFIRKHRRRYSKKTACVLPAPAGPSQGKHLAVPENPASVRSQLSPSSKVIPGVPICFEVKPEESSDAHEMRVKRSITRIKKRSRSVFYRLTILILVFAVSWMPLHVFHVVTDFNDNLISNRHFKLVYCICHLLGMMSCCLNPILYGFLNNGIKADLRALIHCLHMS
# T2: rat NPY Y5 receptor, clone Y555 (rat)
# T2 chain: T1 chain
# T3: rat NPY Y5 receptor, clone Y217.24.13.6B (rat)
# T3 chain: T1 chain with L61P
# What was measured:
# [1] = target: T1, rat NPY Y5 receptor, clone Y861; assay: competition with [125I]PYY, membranes of transfected COS-7 cells
# Text: (§1) All other peptides were purchased from either Peninsula (Belmont, Calif.) or Bachem (Torrance, Calif.).
# [2] = target: T2, rat NPY Y5 receptor, clone Y555; assay: competition with [125I]PYY, membranes of transfected COS-7 cells; average of two experiments
# Text: as §1
# [3] = target: T2, rat NPY Y5 receptor, clone Y555; assay: competition with [125I]PYY, membranes of transfected COS-7 cells; second individual value in brackets
# Text: as §1
# [4] = target: T3, rat NPY Y5 receptor, clone Y217.24.13.6B; assay: competition with [125I]PYY, membranes of transfected COS-7 cells
# Text: as §1
# [5] = target: T2, rat NPY Y5 receptor, clone Y555; assay: competition with [125I]PYY, membranes of transfected COS-7 cells; first individual value in brackets
# Text: as §1
# [6] = target: T3, rat NPY Y5 receptor, clone Y217.24.13.6B; assay: competition with [125I]PYY, membranes of transfected COS-7 cells; second individual value in brackets
# Text: as §1
# [7] = target: T3, rat NPY Y5 receptor, clone Y217.24.13.6B; assay: competition with [125I]PYY, membranes of transfected COS-7 cells; first individual value in brackets
# Text: as §1
binder,measurement,setting,value
APLEPVYPGDNATPEQMAQYAADLRRYINMLTRPRY [hPP],IC50,[1],4.9 nM
APLEPMYPGDYATHEQRAQYETQLRRYINTLTRPRY [rPP],IC50,[1],325 nM
SPEELSRYYASLRHYLNLVTRQRY [r(13-36)PYY],IC50,[2],32 nM
same,IC50,[3],54 nM
same,IC50,[4],13.2 nM
same,IC50,[1],73 nM
same,IC50,[5],9.6 nM
ARYYSALRHYINLITRQRY (ends and bridges not checked) [p(18-36)NPY],IC50,[6],107 nM
same,IC50,[7],147 nM
YYSALRHYINLITRQRY (ends and bridges not checked) [r/h(20-36)NPY],IC50,[6],332 nM
same,IC50,[7],387 nM
SALRHYINLITRQRY (ends and bridges not checked) [r/h(22-36)NPY],IC50,[4],> 1000 nM
HYINLITRQRY (ends and bridges not checked) [r/h(26-36)NPY],IC50,[4],> 1000 nM
